Experimental data: publication PMC10127133, “Structural insights into a cooperative switch between one and two FimH bacterial adhesins binding pauci- and high-mannose type N-glycan receptors” (The Journal of Biological Chemistry, 2023)

These binders were tested against T1, FimH lectin domain (residues Phe1-Thr158) (Escherichia coli, UniProt P08191 22-179) (assay: SPR; single-cycle kinetics on BIAcore T200; ω1-glycoprotein immobilised on a CM5 chip via primary amino groups (EDC/NHS); FimH as analyte at 14.4, 7.17, 3.60, 1.80, 0.9 μM; 20 mM Hepes, 150 mM NaCl, 0.005% Tween; 30 μl/min; 298 K; fit to the Langmuir 1:1 model). Conditions: both partners purified.
T1 construct: FimH type-1 fimbrial adhesin of Escherichia coli, lectin domain, residues Phe1-Thr158; No tag is mentioned; also called FimH adhesin; source: E. coli C43(DE3), pET24a vector, purified (sulfopropyl fast flow cation exchange chromatography)
T1 sequence (P08191 22-179): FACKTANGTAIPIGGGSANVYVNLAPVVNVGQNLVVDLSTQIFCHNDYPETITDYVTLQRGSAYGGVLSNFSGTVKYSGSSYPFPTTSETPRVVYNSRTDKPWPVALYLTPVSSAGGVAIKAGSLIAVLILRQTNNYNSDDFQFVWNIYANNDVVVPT

| Binder | Kd [nM] | koff [s⁻¹] | kon [M⁻¹ s⁻¹] |
| --- | --- | --- | --- |
| omega-1 (ω1) glycoprotein carrying Man3Gn2 (natural protein, N-glycans Man3Gn2 (oligomannose-3, paucimannosidic); sites not stated) QNRWDYYVFSVTWPPTYCESIQCRLPRGLRDFTIHGLWPTIFPNRQPNCTGSLRFDIRRLQGIRNELDLMWPHLKNYRESPSFWKHEFEKHGLCAVEDPQVFNQYGYFKFGIKLMQKLNLLKTLMKYKISPHDSRQYDTINLMNVLEREFGYNGSANCIRKPGRRGMYHLEEVHVCLNRKHEFMNCPFLGNCPKKFIFPPFQ | 33.6 | 0.00013 | 3890 |
| omega-1 (ω1) glycoprotein carrying X1Man3Gn2F1[3] (natural protein, N-glycans X1Man3Gn2F1[3] (oligomannose-3 with β1,2-xylose on mannose 3 and α1,3 core fucose); sites not stated) QNRWDYYVFSVTWPPTYCESIQCRLPRGLRDFTIHGLWPTIFPNRQPNCTGSLRFDIRRLQGIRNELDLMWPHLKNYRESPSFWKHEFEKHGLCAVEDPQVFNQYGYFKFGIKLMQKLNLLKTLMKYKISPHDSRQYDTINLMNVLEREFGYNGSANCIRKPGRRGMYHLEEVHVCLNRKHEFMNCPFLGNCPKKFIFPPFQ | 6000 | 0.0015 | 257 |
| omega-1 (ω1) glycoprotein carrying Man3Gn2F1[3] (natural protein, N-glycans Man3Gn2F1[3] (α1,3 core-fucosylated oligomannose-3); sites not stated) QNRWDYYVFSVTWPPTYCESIQCRLPRGLRDFTIHGLWPTIFPNRQPNCTGSLRFDIRRLQGIRNELDLMWPHLKNYRESPSFWKHEFEKHGLCAVEDPQVFNQYGYFKFGIKLMQKLNLLKTLMKYKISPHDSRQYDTINLMNVLEREFGYNGSANCIRKPGRRGMYHLEEVHVCLNRKHEFMNCPFLGNCPKKFIFPPFQ | 128 | 6.72e-05 | 525 |
| omega-1 (ω1) glycoprotein carrying Man3Gn2F1[6] (natural protein, N-glycans Man3Gn2F1[6] (α1,6 core-fucosylated oligomannose-3); sites not stated) QNRWDYYVFSVTWPPTYCESIQCRLPRGLRDFTIHGLWPTIFPNRQPNCTGSLRFDIRRLQGIRNELDLMWPHLKNYRESPSFWKHEFEKHGLCAVEDPQVFNQYGYFKFGIKLMQKLNLLKTLMKYKISPHDSRQYDTINLMNVLEREFGYNGSANCIRKPGRRGMYHLEEVHVCLNRKHEFMNCPFLGNCPKKFIFPPFQ | 134 | 8.89e-05 | 663 |
